Paper doi:10.1101/2022.09.30.510402

Biological target: modified αM subunit in which the αMI-domain was deleted (I-less form of Mac-1) (human) (UniProt P11215)
Experiment: co-IP

Sequence of CD47 (Q08722 19-323): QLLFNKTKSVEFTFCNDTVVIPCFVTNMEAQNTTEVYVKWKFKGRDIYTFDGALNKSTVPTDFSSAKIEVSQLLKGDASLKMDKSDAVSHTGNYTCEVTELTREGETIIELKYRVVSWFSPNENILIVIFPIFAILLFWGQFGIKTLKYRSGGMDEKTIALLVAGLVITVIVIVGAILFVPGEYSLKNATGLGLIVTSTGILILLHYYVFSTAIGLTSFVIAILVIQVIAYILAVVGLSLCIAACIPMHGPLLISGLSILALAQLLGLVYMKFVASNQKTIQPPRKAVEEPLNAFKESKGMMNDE

CD47 (from UniProt Q08722 19-323) (natural protein)
fold more CD47 bound than by the whole integrin: 1.5
